According to US20240316154A1 (Eli Lilly, published 2024):
Read-outs that look alike come from different tables or passages of the source.

Assays:
Rabbit serum albumin [1] = molecular target: T1, Rabbit serum albumin (rabbit, UniProt P49065 25-608); test: SPR, SA on chip, 25 C
T1 construct: bought; immobilised on a CM5 chip by amine coupling; also called Rabbit SA

[2] = molecular target: IL-2 receptor-dimer pair of the PathHunter IL-2 BioAssay cells; test: cell-based or functional assay
Human serum albumin [3] = molecular target: T2, Human serum albumin (human, UniProt P02768 25-609); test: SPR, SA on chip, 1:1 fit, 25 C
T2 construct: bought; immobilised on a CM5 chip by amine coupling; also called Human SA

[4] = molecular target: T3, Cynomolgus monkey serum albumin (cynomolgus monkey, UniProt A2V9Z4 25-608); test: SPR, SA on chip, 1:1 fit, 25 C
T3 construct: bought; immobilised on a CM5 chip by amine coupling; also called Cyno SA

Mouse serum albumin [5] = molecular target: T4, Mouse serum albumin (mouse, UniProt P07724 25-608); test: SPR, SA on chip, 1:1 fit, 25 C
T4 construct: bought; immobilised on a CM5 chip by amine coupling; also called Mouse SA

Rat serum albumin [6] = molecular target: T5, Rat serum albumin (rat, UniProt P02770 25-608); test: SPR, SA on chip, 1:1 fit, 25 C
T5 construct: bought; immobilised on a CM5 chip by amine coupling; also called Rat SA

Pig serum albumin [7] = molecular target: T6, Pig serum albumin (pig, UniProt P08835 25-607); test: SPR, SA on chip, 1:1 fit, 25 C
T6 construct: bought; immobilised on a CM5 chip by amine coupling; also called Pig SA

Dog serum albumin [8] = molecular target: T7, Dog serum albumin (dog, UniProt P49822 25-608); test: SPR, SA on chip, 1:1 fit, 25 C
T7 construct: bought; immobilised on a CM5 chip by amine coupling; also called Dog SA

Cow serum albumin [9] = molecular target: T8, Cow serum albumin (cow, UniProt P02769 25-607); test: SPR, SA on chip, 1:1 fit, 25 C
T8 construct: bought; immobilised on a CM5 chip by amine coupling; also called Cow SA

Rabbit serum albumin [10] = molecular target: T1, Rabbit serum albumin; test: SPR, SA on chip, 25 C; remark: listed apart in the source
Human serum albumin [11] = molecular target: T2, Human serum albumin; test: SPR, SA on chip, 1:1 fit, 25 C; remark: listed apart in the source
[12] = molecular target: T3, Cynomolgus monkey serum albumin; test: SPR, SA on chip, 1:1 fit, 25 C; remark: listed apart in the source
Mouse serum albumin [13] = molecular target: T4, Mouse serum albumin; test: SPR, SA on chip, 1:1 fit, 25 C; remark: listed apart in the source
Rat serum albumin [14] = molecular target: T5, Rat serum albumin; test: SPR, SA on chip, 1:1 fit, 25 C; remark: listed apart in the source
Pig serum albumin [15] = molecular target: T6, Pig serum albumin; test: SPR, SA on chip, 1:1 fit, 25 C; remark: listed apart in the source
Dog serum albumin [16] = molecular target: T7, Dog serum albumin; test: SPR, SA on chip, 1:1 fit, 25 C; remark: listed apart in the source
Cow serum albumin [17] = molecular target: T8, Cow serum albumin; test: SPR, SA on chip, 1:1 fit, 25 C; remark: listed apart in the source
Rabbit serum albumin [18] = molecular target: T1, Rabbit serum albumin; test: SPR, SA on chip, 25 C; remark: listed apart in the source
[19] = molecular target: human ErbB4 receptor (NCBI Ref. Seq. No. NP_001036064.1) (human, UniProt Q15303 26-1308); test: cell-based or functional assay
Human serum albumin [20] = molecular target: T2, Human serum albumin; test: SPR, SA on chip, 1:1 fit, 25 C; remark: listed apart in the source
[21] = molecular target: T3, Cynomolgus monkey serum albumin; test: SPR, SA on chip, 1:1 fit, 25 C; remark: listed apart in the source
Mouse serum albumin [22] = molecular target: T4, Mouse serum albumin; test: SPR, SA on chip, 1:1 fit, 25 C; remark: listed apart in the source
Rat serum albumin [23] = molecular target: T5, Rat serum albumin; test: SPR, SA on chip, 1:1 fit, 25 C; remark: listed apart in the source
Pig serum albumin [24] = molecular target: T6, Pig serum albumin; test: SPR, SA on chip, 1:1 fit, 25 C; remark: listed apart in the source
Dog serum albumin [25] = molecular target: T7, Dog serum albumin; test: SPR, SA on chip, 1:1 fit, 25 C; remark: listed apart in the source
Cow serum albumin [26] = molecular target: T8, Cow serum albumin; test: SPR, SA on chip, 1:1 fit, 25 C; remark: listed apart in the source
Rabbit serum albumin [27] = molecular target: T1, Rabbit serum albumin; test: SPR, SA on chip, 25 C; remark: listed apart in the source
[28] = molecular target: human GFRAL and human RET on HEK293 cells (human, UniProt Q6UXV0 19-394; P07949 29-1114); test: cell-based or functional assay
Human serum albumin [29] = molecular target: T2, Human serum albumin; test: SPR, SA on chip, 1:1 fit, 25 C; remark: listed apart in the source
[30] = molecular target: T3, Cynomolgus monkey serum albumin; test: SPR, SA on chip, 1:1 fit, 25 C; remark: listed apart in the source
Mouse serum albumin [31] = molecular target: T4, Mouse serum albumin; test: SPR, SA on chip, 1:1 fit, 25 C; remark: listed apart in the source
Rat serum albumin [32] = molecular target: T5, Rat serum albumin; test: SPR, SA on chip, 1:1 fit, 25 C; remark: listed apart in the source
Pig serum albumin [33] = molecular target: T6, Pig serum albumin; test: SPR, SA on chip, 1:1 fit, 25 C; remark: listed apart in the source
Dog serum albumin [34] = molecular target: T7, Dog serum albumin; test: SPR, SA on chip, 1:1 fit, 25 C; remark: listed apart in the source
Cow serum albumin [35] = molecular target: T8, Cow serum albumin; test: SPR, SA on chip, 25 C; ka and kd printed as *not applicable

B1: VHH-based fusion of Example 6, VHH fusion 6 (IL2-(G4Q)5-MC6.1C22.43) (other)
chain: APQSSSTQQTQLQLEHLLLDLQMILNGINNYKNPKLTRMLTFKFYMPKKATELKHLQCLEEELKPLEEVLNLAQSKNFHLRPRDLISRINVIVLELKGSETTFMCEYADETATIVEFLNRWITFAQSIISTLTGGGGQGGGGQGGGGQGGGGQGGGGQEVQLLESGGGLVQPGGSLRLSCAASGRYIDETAVAWFRQAPGKEREFVAGIGGGVDITYYADSVKGRFTISRDNSKNTLYLQMNSLRPEDTAVYYCAARPGRPLITSKVADLYPYWGQGTLVTVSSPP
notes: also called Compound 6; IL-2-VHH fusion
B1 was tested, and the binding result (Rabbit serum albumin [1]) was “no binding (tested: up to 1000 nM)”, the “EC50 (nM), PathHunter IL-2 BioAssay” value [2] was 6.7 nM and the Kd (Human serum albumin [3]) was 1.5 nM. It also gave a koff (Human serum albumin [3]) of 0.00026 s⁻¹, a kon (Human serum albumin [3]) of 180000 M⁻¹ s⁻¹ and a Kd [4] of 5 nM. The koff [4] was 0.00088 s⁻¹, the kon [4] was 180000 M⁻¹ s⁻¹ and the Kd (Mouse serum albumin [5]) was 50 nM. For the same binder, the koff (Mouse serum albumin [5]) was 0.0087 s⁻¹, the kon (Mouse serum albumin [5]) was 170000 M⁻¹ s⁻¹ and the Kd (Rat serum albumin [6]) was 34 nM. For the same binder, the koff (Rat serum albumin [6]) was 0.0066 s⁻¹, the kon (Rat serum albumin [6]) was 190000 M⁻¹ s⁻¹ and the Kd (Pig serum albumin [7]) was 100 nM. For the same binder, the koff (Pig serum albumin [7]) was 0.012 s⁻¹, the kon (Pig serum albumin [7]) was 120000 M⁻¹ s⁻¹ and the Kd (Dog serum albumin [8]) was 19 nM. For the same binder, the koff (Dog serum albumin [8]) was 0.0034 s⁻¹, the kon (Dog serum albumin [8]) was 170000 M⁻¹ s⁻¹ and the Kd (Cow serum albumin [9]) was 380 nM. The koff (Cow serum albumin [9]) was 0.071 s⁻¹ and the kon (Cow serum albumin [9]) was 190000 M⁻¹ s⁻¹.

B2: VHH-based fusion of Example 7, VHH fusion 7 (MC6.1C22-(G4Q)5-IL2) (other)
chain: EVQLLESGGGLVQPGGSLRLSCAASGRYIDETAVAWFRQAPGKEREFVAGIGGGVDITYYADSVKGRFTISRDNSKNTLYLQMNSLRPEDTAVYYCAARPGRPLITSKVADLYPYWGQGTLVTVSSGGGGQGGGGQGGGGQGGGGQGGGGQAPQSSSTQQTQLQLEHLLLDLQMILNGINNYKNPKLTRMLTFKFYMPKKATELKHLQCLEEELKPLEEVLNLAQSKNFHLRPRDLISRINVIVLELKGSETTFMCEYADETATIVEFLNRWITFAQSIISTLT
notes: also called Compound 7; VHH-IL-2 fusion
B2 was tested, and the binding result (Rabbit serum albumin [10]) was “no binding (tested: up to 1000 nM)”, the “EC50 (nM), PathHunter IL-2 BioAssay” value [2] was 0.49 nM and the Kd (Human serum albumin [11]) was 0.23 nM. The koff (Human serum albumin [11]) was 0.00021 s⁻¹, the kon (Human serum albumin [11]) was 910000 M⁻¹ s⁻¹ and the Kd [12] was 0.39 nM. The koff [12] was 0.00056 s⁻¹, the kon [12] was 1.4e+06 M⁻¹ s⁻¹ and the Kd (Mouse serum albumin [13]) was 3.9 nM. It also gave a koff (Mouse serum albumin [13]) of 0.0038 s⁻¹, a kon (Mouse serum albumin [13]) of 970000 M⁻¹ s⁻¹ and a Kd (Rat serum albumin [14]) of 3 nM. The koff (Rat serum albumin [14]) was 0.0029 s⁻¹, the kon (Rat serum albumin [14]) was 970000 M⁻¹ s⁻¹ and the Kd (Pig serum albumin [15]) was 13 nM. It also gave a koff (Pig serum albumin [15]) of 0.0058 s⁻¹, a kon (Pig serum albumin [15]) of 450000 M⁻¹ s⁻¹ and a Kd (Dog serum albumin [16]) of 1.8 nM. For the same binder, the koff (Dog serum albumin [16]) was 0.0016 s⁻¹, the kon (Dog serum albumin [16]) was 920000 M⁻¹ s⁻¹ and the Kd (Cow serum albumin [17]) was 78 nM. For the same binder, the koff (Cow serum albumin [17]) was 0.052 s⁻¹ and the kon (Cow serum albumin [17]) was 670000 M⁻¹ s⁻¹.

B3: VHH-based fusion of Example 4, VHH fusion 4 (MC6.1C22-(G4Q)5-NRG1) (other)
chain: EVQLLESGGGLVQPGGSLRLSCAASGRYIDETAVAWFRQAPGKEREFVAGIGGGVDITYYADSVKGRFTISRDNSKNTLYLQMNSLRPEDTAVYYCAARPGRPLITSKVADLYPYWGQGTLVTVSSGGGGQGGGGQGGGGQGGGGQGGGGQSHLVKCAEKEKTFCVNGGECFMVKDLSNPSRYLCKCPNEFTGDRCQNYVMASFYKHLGIEFMEAEELYQ
notes: also called Compound 4; VHH-NRG1 fusion
For B3, the binding result (Rabbit serum albumin [18]) was “no binding (tested: up to 1000 nM)”, the “EC50 (ng/mL), PathHunter ErbB4/ErbB4 dimerization assay” value [19] was 112 ng/mL and the Kd (Human serum albumin [20]) was 0.19 nM. It also gave a koff (Human serum albumin [20]) of 0.00019 s⁻¹, a kon (Human serum albumin [20]) of 1e+06 M⁻¹ s⁻¹ and a Kd [21] of 0.94 nM. For the same binder, the koff [21] was 0.00063 s⁻¹, the kon [21] was 680000 M⁻¹ s⁻¹ and the Kd (Mouse serum albumin [22]) was 6.4 nM. For the same binder, the koff (Mouse serum albumin [22]) was 0.0042 s⁻¹, the kon (Mouse serum albumin [22]) was 660000 M⁻¹ s⁻¹ and the Kd (Rat serum albumin [23]) was 3.1 nM. The koff (Rat serum albumin [23]) was 0.003 s⁻¹, the kon (Rat serum albumin [23]) was 970000 M⁻¹ s⁻¹ and the Kd (Pig serum albumin [24]) was 15 nM. It also gave a koff (Pig serum albumin [24]) of 0.006 s⁻¹, a kon (Pig serum albumin [24]) of 400000 M⁻¹ s⁻¹ and a Kd (Dog serum albumin [25]) of 2.2 nM. The koff (Dog serum albumin [25]) was 0.0017 s⁻¹, the kon (Dog serum albumin [25]) was 780000 M⁻¹ s⁻¹ and the Kd (Cow serum albumin [26]) was 100 nM. For the same binder, the koff (Cow serum albumin [26]) was 0.058 s⁻¹ and the kon (Cow serum albumin [26]) was 570000 M⁻¹ s⁻¹.

B4: VHH-based fusion of Example 5, VHH fusion 5 (MC6.1C22-(G4Q)5-GDF15) (other)
chain: EVQLLESGGGLVQPGGSLRLSCAASGRYIDETAVAWFRQAPGKEREFVAGIGGGVDITYYADSVKGRFTISRDNSKNTLYLQMNSLRPEDTAVYYCAARPGRPLITSKVADLYPYWGQGTLVTVSSGGGGQGGGGQGGGGQGGGGQGGGGQGDHCPLGPGRCCRLHTVRASLEDLGWADWVLSPREVQVTMCIGACPSQFRAANMHAQIKTSLHRLKPDTVPAPCCVPASYNPMVLIQKTDTGVSLQTYDDLLAKDCHCI
notes: also called Compound 5; VHH-GDF15 fusion
In the case of B4, the binding result (Rabbit serum albumin [27]) is reported as “no binding (tested: up to 1000 nM)”, the “hGFRAL/RET EC50 (pM), p-ERK1/2 AlphaLISA” value [28] is reported as 101 pM and the Kd (Human serum albumin [29]) is reported as 0.2 nM. The koff (Human serum albumin [29]) was 0.00014 s⁻¹, the kon (Human serum albumin [29]) was 670000 M⁻¹ s⁻¹ and the Kd [30] was 0.45 nM. The koff [30] was 0.00034 s⁻¹, the kon [30] was 740000 M⁻¹ s⁻¹ and the Kd (Mouse serum albumin [31]) was 0.86 nM. For the same binder, the koff (Mouse serum albumin [31]) was 0.0012 s⁻¹, the kon (Mouse serum albumin [31]) was 1.4e+06 M⁻¹ s⁻¹ and the Kd (Rat serum albumin [32]) was 0.74 nM. For the same binder, the koff (Rat serum albumin [32]) was 0.00077 s⁻¹, the kon (Rat serum albumin [32]) was 1e+06 M⁻¹ s⁻¹ and the Kd (Pig serum albumin [33]) was 3.3 nM. For the same binder, the koff (Pig serum albumin [33]) was 0.0028 s⁻¹, the kon (Pig serum albumin [33]) was 850000 M⁻¹ s⁻¹ and the Kd (Dog serum albumin [34]) was 0.6 nM. It also gave a koff (Dog serum albumin [34]) of 0.00068 s⁻¹, a kon (Dog serum albumin [34]) of 1.1e+06 M⁻¹ s⁻¹ and a Kd (Cow serum albumin [35]) of 28 nM.
